From publication PMC9168836, “Clamping of DNA shuts the condensin neck gate” (Proceedings of the National Academy of Sciences of the …, 2021)

Assays:
[1] = target: Smc2;Smc4;Brn1 (kleisin);Ycs4 (HAWK) (Saccharomyces cerevisiae;Saccharomyces …, UniProt P38989;Q12267;P38170;Q06156 1-1170;1-1418;1-754;1-1176, |||); test: cryo-EM structure; condensin tetramer; ADP.BeF3, Mg2+; clamped head module Form I, 2.95 A; 30 mM Tris/HCl pH 7.5, 60 mM NaCl, 1 mM TCEP, 2 mM MgCl2, 5 mM ADP, 1 mM BeSO4, 10 mM NaF; 30 min at room temperature; 1-2 uM 80-bp DNA or 100 nM circular DNA; details: protein: recombinant;recombinant;recombinant;recombinant; copies: 1;1;1;1; blunt
[2] = target: Ycg1 (HAWK);Brn1 (kleisin) (Saccharomyces cerevisiae;Saccharomyces …, UniProt Q06680;P38170 1-1035;1-754, |); test: cryo-EM structure; Ycg1-Brn1 part of the condensin pentamer; ADP.BeF3, Mg2+ in sample; 3.2 A; 30 mM Tris/HCl pH 7.5, 60 mM NaCl, 1 mM TCEP, 2 mM MgCl2, 5 mM ADP, 1 mM BeSO4, 10 mM NaF; 30 min at room temperature; 1-2 uM 80-bp DNA or 100 nM circular DNA; details: protein: recombinant;recombinant; tags: see P1;see P1; copies: 1;1; blunt
Ycg1 (HAWK);Brn1 (kleisin), sequence (Q06680 whole entry, chain 1 of 2): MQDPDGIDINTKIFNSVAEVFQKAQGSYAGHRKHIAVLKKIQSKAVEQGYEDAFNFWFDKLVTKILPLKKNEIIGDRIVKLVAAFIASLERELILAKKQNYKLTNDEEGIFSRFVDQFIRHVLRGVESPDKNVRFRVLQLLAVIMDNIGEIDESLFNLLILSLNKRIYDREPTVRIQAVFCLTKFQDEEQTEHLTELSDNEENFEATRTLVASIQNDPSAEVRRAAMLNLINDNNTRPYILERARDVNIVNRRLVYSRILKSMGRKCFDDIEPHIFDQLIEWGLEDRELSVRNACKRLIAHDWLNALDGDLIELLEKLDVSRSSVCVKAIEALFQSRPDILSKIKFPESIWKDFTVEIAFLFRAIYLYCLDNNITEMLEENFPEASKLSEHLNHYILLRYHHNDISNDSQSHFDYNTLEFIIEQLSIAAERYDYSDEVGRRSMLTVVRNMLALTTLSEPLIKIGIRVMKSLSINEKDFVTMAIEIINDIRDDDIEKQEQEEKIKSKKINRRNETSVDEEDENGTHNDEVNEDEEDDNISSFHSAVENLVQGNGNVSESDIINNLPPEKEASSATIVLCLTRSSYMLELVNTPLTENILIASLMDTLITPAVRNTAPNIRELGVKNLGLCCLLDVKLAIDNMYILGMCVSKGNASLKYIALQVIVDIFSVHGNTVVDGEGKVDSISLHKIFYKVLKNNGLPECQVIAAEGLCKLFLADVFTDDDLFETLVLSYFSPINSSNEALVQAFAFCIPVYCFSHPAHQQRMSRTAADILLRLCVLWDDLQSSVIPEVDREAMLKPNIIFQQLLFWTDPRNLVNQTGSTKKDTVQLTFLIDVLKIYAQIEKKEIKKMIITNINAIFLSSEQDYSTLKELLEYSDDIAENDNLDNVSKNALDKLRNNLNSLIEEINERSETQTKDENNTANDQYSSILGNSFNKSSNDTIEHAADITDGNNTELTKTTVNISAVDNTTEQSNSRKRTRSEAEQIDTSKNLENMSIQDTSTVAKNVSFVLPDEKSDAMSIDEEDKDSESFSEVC
Ycg1 (HAWK);Brn1 (kleisin), sequence (P38170 whole entry, chain 2 of 2): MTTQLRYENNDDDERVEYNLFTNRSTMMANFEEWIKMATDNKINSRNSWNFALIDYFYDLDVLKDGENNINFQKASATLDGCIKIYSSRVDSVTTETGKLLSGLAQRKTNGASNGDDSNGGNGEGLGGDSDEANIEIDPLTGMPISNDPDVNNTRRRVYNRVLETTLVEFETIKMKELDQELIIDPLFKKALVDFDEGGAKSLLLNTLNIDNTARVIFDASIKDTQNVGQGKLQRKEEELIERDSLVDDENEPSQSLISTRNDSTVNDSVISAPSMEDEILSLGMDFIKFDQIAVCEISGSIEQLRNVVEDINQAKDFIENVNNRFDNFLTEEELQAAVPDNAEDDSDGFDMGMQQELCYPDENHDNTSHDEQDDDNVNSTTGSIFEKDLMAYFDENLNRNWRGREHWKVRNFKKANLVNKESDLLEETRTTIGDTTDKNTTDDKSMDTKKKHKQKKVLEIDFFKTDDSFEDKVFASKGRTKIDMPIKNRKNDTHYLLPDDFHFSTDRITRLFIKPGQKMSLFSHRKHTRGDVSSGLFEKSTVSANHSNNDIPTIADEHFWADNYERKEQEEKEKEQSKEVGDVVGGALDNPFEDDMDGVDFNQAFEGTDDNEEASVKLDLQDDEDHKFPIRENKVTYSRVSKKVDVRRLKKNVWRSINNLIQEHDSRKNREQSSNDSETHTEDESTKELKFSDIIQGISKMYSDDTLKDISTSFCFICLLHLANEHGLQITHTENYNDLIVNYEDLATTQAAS

[3] = target: Smc2;Smc4;Brn1 (kleisin);Ycs4 (HAWK);Ycg1 (HAWK) (Saccharomyces cerevisiae;Saccharomyces …, UniProt P38989;Q12267;P38170;Q06156;Q06680 1-1170;1-1418;1-754;1-1176;1-1035, ||||); test: cryo-EM structure; condensin pentamer; ADP.BeF3, Mg2+; clamped head module map EMD-13785, Ycg1 not on head module; 30 mM Tris/HCl pH 7.5, 60 mM NaCl, 1 mM TCEP, 2 mM MgCl2, 5 mM ADP, 1 mM BeSO4, 10 mM NaF; 30 min at room temperature; 1-2 uM 80-bp DNA or 100 nM circular DNA; details: protein: recombinant;recombinant;recombinant;recombinant;recombinant; copies: 1;1;1;1;1; blunt

Measured: binding result

B1: 80-bp dsDNA (dsDNA)
DNA 1: GAATTCGGTGCGCATAATGTATAATAAGATAAATAAGCTTAAGTTCTTCCGATGCATAATAACATAATACGTGACTTTAC
DNA 2: GTAAAGTCACGTATTATGTTATTATGCATCGGAAGAACTTAAGCTTATTTATCTTATTATACATTATGCGCACCGAATTC
binds: all assays above
